Test results reported in the domain aggregation screens of Martell et al. (2025).

Test: soluble fraction after stress (log2 fold change); higher = more stays soluble; pooled small domains, quantitative proteomics
Conditions: stress: 50 degC
Procedure, shortened: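 Pooled custom libraries of small protein domains were measured in a high-throughput format, with quantitative proteomics as the read-out. Each library was stressed at 50°C. Aggregation propensity is given as the base-two logarithm of the fold change in how much of each protein stays soluble after the stress. Higher values mean a larger share of the protein remains in solution.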

| Sequence | soluble fraction (log2) |
| --- | --- |
| HMSWRWVPVSGAYTTSALEAAGLTRAFDDQAAAEEWLGLFFDDLLREGVGEVSLYEEDRLVYGPMSL | -3.1 |
| HMLISKNLLGFTIKNTSGVTFGTLKDIMWLPSNDVYVIDNNGKEYLIPVISEIVKSINYDKGSITIFP | -0.352 |
| HMNVKQALLELMQRKPELTGSAIARAIGYSPAVISQYLKDGYPGDVVKLTTLIGDFIRRIDEKERS | -0.182 |
| HMPPFTYHLERAKRKTVGFIVDERGVTVRAPRWVSVSEIEKMLQTKEAWIQKKLTEFHNWQKE | -3.11 |
| HMEKMLENIDLKAAVEALPEREKKVILLRYYRGMTQDAAAKVMKVSQVQISRIEKRAIEILREKL | -1.52 |
| HMASAEDDLTRRARKLLTTSSMLKTLQPDTGERLQWLPQVVRLLAEGVEAPRIVVLIRRAMESG | -1.04 |
| HMSLSVEESYKLLDISPSAGDEEITKKFRLLALKYHPDKNRSKIEWANNIMSRLNQAYSVIMSSRFESNAE | -0.476 |
| HMLQESDPEALRGIVKSVLVDHAAVAEEYRAGKQSVLQFLVGQGMKASKGAGNPGLIRDLMLEEL | -0.00903 |
| HMEGFKSVYFLTTPSGAEISDRSVGDIISKTPSLVSAQEGTEFEFNLKGYQPSFYMINKRSPDRVFVELIP | -0.535 |
| HMIMLDRILKIMDYNKFTPSEFADVLEIDRSRLSHILNGRNKPSLEIVMKILEKFPEISSDWLLFGSGNML | -1.49 |
| HMHGSTAVVPQIKNMPYSEASVRLGANGLAIEINDSVYDRDMPPGTVIESWPKAGAVVKQGRQVYVTVTA | -0.221 |
| HMHSESAAHQRTSVELFARIPETGNLQSAQRHFDVINQFGRFPHRNKILQRPSSEQEEAFLRQPGSG | 0.0792 |
| HMKMSVKNEIISLLEKNRDTSISGQVIADSLNVTRAAVWKAIKVLKEEGYNIDGTPNKGYILLGNN | -0.368 |
| HMTVLTDEIKVILISYIKENDFKKKHGNRKMMMTAQDMYDELVEKGYKISYPTVTQYVQKYRENETT | -1.27 |
| HMPREQQENVYLLEKAKRLYEEYLGDQRQTIGHALAQFERVLESQDPAAIRRAQKEFGEFLERYDG | 0.102 |
| HMYKLTTQRRAILDVIIENHDKHLNPEEIYDIVKEKYPEIGIATVYRTLQLLEKLNIIYRLNFDDGYNRYE | -2.3 |
| HMSLTTKSVEETLGITRQTLHNWIKEGLLPAPKKDFRNWYIWSDEDLENLRNIIEQKTLINNKKQAV | -0.133 |
| HMDDYRSLRGQEKAAIFLMSLSQEQAAKIFANLDDEEIKEISQAMSSLGTVGSEIIERLFVEFAEQVSS | -1.06 |
| HMGLSENALAMLKQQETVLIRLIDGRGNQGALASINLIVSRILNLDIVDRTPEDLLRVIASEGEQND | -3.78 |

| Sequence | soluble fraction (log2) |
| --- | --- |
| HMIDTLEYIISEESKGLRADQAITMVNGEFSRSLIQKWIKKGSILVNGKKIKPRDILNLNDKVTINPEEN | -0.0699 |
| HMKRPEPESPEAERRSQRAADWLVRRDRGLTAAEQDEFLQWLAIDPRHGEWFALHRSVVGEFSA | -0.192 |
| HMNAVDLLSPQEQRIFELIGEGMSNRQIADVMYLAEKTVKNYVSNVLMKLGMERRTEAAALAARLDERQK | -0.114 |
| HMHSILDDIPTVGPARRKALMRRYESLEAIRQATVDELKELPEINEASAEAIVSFFAGQAKEG | -0.0626 |
| HMESKDIRYVQLQTVSPEEVLQALALIMPRSDVYVEPTGKLVVLHGSKETLDRAEELILALDNAV | 0.0118 |
| HMSTDDILSSITALRLASVQFQLGQFDPALDSLKLVKEQAWSGAKNILAGDIQLAKGDKEAAKASYQQAQQ | -0.38 |
| HMTFPTEAKLTGDKVFVRSGPSTQSQRLTNLAINSVVTVLAREMGDMQYPWYKVRYSDGEGWVYGQYVEAI | -0.0237 |
| HMLDRNKLNELDAYIESFEDKPSHLIMILHRAQGLFGYLPKELQIYVAEKTGVPAAKVYGVVTFYSFFTMK | -1.4 |
| HMDLIISDIRMPEMRGDDFLEWIKANELFKHIPVIMLSSEDSTTERIRLLEIGAEDYIVKPFNPMELKIR | -0.505 |
| HMVQAQGARIREARVQRGLSQAQLGEPRYSGSYISHIENGRRSPGTDVLAFIAARLGLEPGALDS | -0.504 |
| HMKLTEEEFNAKRKAYLDRLETLNDEAVIKATFMEAASGLGLQKGSAEFGDLRKYFVDRIVDIK | 0.385 |
| HMEREQNILQGREVVERELRRLGLAEAYTVSDIAKALKFDDEEQFLAKVGFGDIQSRQISGAIALMEKN | 0.0472 |
| HMDLTIEQTTVLGKRLFSNALNSLGKKQRNIKKDAIESLLKRMNLKDMDQLYESIGIGDKSPLLMAQILL | -0.0296 |
| HMVPVQLTPRELQVARLAAHGASSPEIAAELRVSRRTVDNQLGRVYAKLGIAGRAELAAALSRLPVSV | -0.0808 |
| HMEIHIGSLIKEKMEERGLSVSDFAHALHYERTNIYKIFKRSSIDVDLLLRISEVLAYDFLREVYL | -2.63 |
| HMQYIINFEYSGMLLREYLRGVLGLSHGTLTALKKDPLGILLNGEHATVRAVLHAGDRLTLALE | -3.05 |
| HMLNTLGADIRALRKARGLTLAELAQTLGRSVGWLSQVERDMSEPGINDLRDLARALDVSISSLFG | -1.13 |
| HMIMTHSALLEKDGFDIVKVHFERPNDDGFDFLDMTLPGEIVYKSFGFSEDEILKLKRYAKNNSSLIWDF | -2.31 |
